Several values for one entry are separate records, joined by “and”; a condition that tells them apart may be missing. Equal entries are not always repeated. Where two headings read alike, the source gives them in different places.
How the values were obtained:
[1] = target: T1, recombinant E. coli-expressed human IL-13 (human, UniProt P35225 35-146); test: ELISA, IL-13 binding to IL13Ralpha2/Fc
T1 construct: made and purified at GSK; also called Interleukin-13; rhIL-13

[2] = target: T1, recombinant E. coli-expressed human …; test: cell-based or functional assay
[3] = target: T2, recombinant E. coli-expressed cynomolgus IL-13 (cynomolgus, UniProt Q0PW92 21-132); test: cell-based or functional assay
[4] = target: T1, recombinant E. coli-expressed human …; test: cell-based or functional assay; remark: listed apart in the source
[5] = target: T2, recombinant E. coli-expressed …; test: cell-based or functional assay; remark: listed apart in the source
[6] = target: T1, recombinant E. coli-expressed human …; test: SPR, purified
[7] = target: T1, recombinant E. coli-expressed human …; test: SPR, human IL-4 bound first
[8] = target: T3, recombinant E. coli-expressed human IL-4 (human, UniProt P05112 25-153); test: ELISA, IL-4 binding to IL4Ralpha-Fc
T3 construct: made and purified at GSK; also called Interleukin-4; rhIL-4
T3 sequence: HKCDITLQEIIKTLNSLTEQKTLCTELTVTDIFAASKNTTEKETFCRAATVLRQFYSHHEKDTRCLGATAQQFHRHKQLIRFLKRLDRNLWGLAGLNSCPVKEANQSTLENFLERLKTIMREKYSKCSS

[9] = target: T1, recombinant E. coli-expressed human …; test: SPR, no IL-4 bound
[10] = target: T1, recombinant E. coli-expressed human …; test: cell-based or functional assay; remark: listed apart in the source
[11] = target: T3, recombinant E. coli-expressed human IL-4; test: cell-based or functional assay
[12] = target: T1, recombinant E. coli-expressed human …; test: SPR
[13] = target: T3, recombinant E. coli-expressed human IL-4; test: SPR, poor curve fit
[14] = target: T3, recombinant E. coli-expressed human IL-4; test: SPR
[15] = target: T3, recombinant E. coli-expressed human IL-4; test: SPR, purified
[16] = target: T1, recombinant E. coli-expressed human …; test: SPR; remark: listed apart in the source
[17] = target: T4, CD20 on CD20 positive cell line (Wein133) (UniProt P11836 1-297, limits assumed); test: flow cytometry, Wein133 cells
T4 construct: whole, on cells
T4 sequence (looked up): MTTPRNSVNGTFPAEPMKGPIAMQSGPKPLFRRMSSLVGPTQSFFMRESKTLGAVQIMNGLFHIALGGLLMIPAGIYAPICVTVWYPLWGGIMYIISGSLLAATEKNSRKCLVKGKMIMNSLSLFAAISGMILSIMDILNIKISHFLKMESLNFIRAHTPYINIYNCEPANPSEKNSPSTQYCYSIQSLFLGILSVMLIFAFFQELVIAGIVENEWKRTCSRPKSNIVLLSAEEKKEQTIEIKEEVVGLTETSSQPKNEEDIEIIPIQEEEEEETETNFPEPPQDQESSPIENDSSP

[18] = target: T5, recombinant E. coli-expressed cynomolgus IL-4 (cynomolgus, UniProt P79339 25-153); test: SPR
T5 construct: also called cyno IL-4
T5 sequence (looked up): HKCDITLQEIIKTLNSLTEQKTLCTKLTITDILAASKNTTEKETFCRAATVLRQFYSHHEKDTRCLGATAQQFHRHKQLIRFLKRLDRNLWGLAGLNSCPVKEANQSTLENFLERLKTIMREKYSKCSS

[19] = target: T2, recombinant E. coli-expressed …; test: SPR
[20] = target: T1, recombinant E. coli-expressed human …; test: SPR; remark: listed apart in the source
[21] = target: T1, recombinant E. coli-expressed human …; test: SPR exp 3
VEGF R2 (VEGF receptor) = target: T6, VEGF R2 (VEGF receptor) (human, UniProt P35968 20-764); test: ELISA
T6 construct: bought; construct not described
T6 sequence (P35968 20-764 limits assumed): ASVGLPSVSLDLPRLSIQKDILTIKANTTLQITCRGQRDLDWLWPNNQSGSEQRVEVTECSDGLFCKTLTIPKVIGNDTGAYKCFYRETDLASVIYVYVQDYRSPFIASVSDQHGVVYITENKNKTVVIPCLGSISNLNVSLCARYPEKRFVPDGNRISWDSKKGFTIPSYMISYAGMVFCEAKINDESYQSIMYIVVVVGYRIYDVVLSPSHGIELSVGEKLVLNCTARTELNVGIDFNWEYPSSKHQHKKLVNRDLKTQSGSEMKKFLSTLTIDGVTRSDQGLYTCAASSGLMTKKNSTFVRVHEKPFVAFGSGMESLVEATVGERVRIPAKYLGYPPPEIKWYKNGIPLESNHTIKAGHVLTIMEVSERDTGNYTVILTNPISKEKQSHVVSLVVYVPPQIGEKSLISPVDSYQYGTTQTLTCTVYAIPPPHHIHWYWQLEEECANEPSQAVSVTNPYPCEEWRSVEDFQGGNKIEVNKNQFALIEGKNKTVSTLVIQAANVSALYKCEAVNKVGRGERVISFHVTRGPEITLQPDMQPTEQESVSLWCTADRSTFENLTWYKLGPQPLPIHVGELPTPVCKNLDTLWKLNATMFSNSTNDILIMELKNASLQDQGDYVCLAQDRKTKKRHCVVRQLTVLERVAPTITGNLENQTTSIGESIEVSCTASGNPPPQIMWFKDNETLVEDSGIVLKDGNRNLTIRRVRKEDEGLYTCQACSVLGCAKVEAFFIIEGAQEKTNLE

B1: DOM10-53-616 domain antibody (other)
VH: GVQLLESGGGLVQPGGSLRLSCAASGFVFPWYDMGWVRQAPGKGLEWVSSIDWHGKITYYADSVKGRFTISRDNSKNTLYLQMNSLRAEDTAVYYCATAEDEPGYDYWGQGTLVTVSS
notes: anti-IL-13 dAb
For B1, the IC50 [1] was 5.76 nM, the “Mean ND50 (TF-1)” value [2] was 0.536 nM and the “Mean ND50 (TF-1)” value [3] was 3.57 nM. The “Mean ND50 (TF-1)” value [4] was 0.416 nM and the “Mean ND50 (TF-1)” value [5] was 4.81 nM.

B2: 586H-TVAAPS-210 (bispecific antibody, human IgG1, kappa)
heavy: not shown
light: DIVMTQSPLSLPVTPGEPASISCRSSQNIVHINGNTYLEWYLQKPGQSPRLLIYKISDRFSGVPDRFSGSGSGTDFTLKISRVEADDVGIYYCFQGSHVPWTFGQGTKLEIKRTVAAPSVFIFPPSDEQLKSGTASVVCLLNNFYPREAKVQWKVDNALQSGNSQESVTEQDSKDSTYSLSSTLTLSKADYEKHKVYACEVTHQGLSSPVTKSFNRGEC
With B2 the Kd [6] was 0.38 nM, the Kd [7] was 0.325 nM and the koff [7] was 0.000315 s⁻¹. For the same binder, the kon [7] was 968000 M⁻¹ s⁻¹, the IC50 [8] was 23.8 nM and 21 nM and the Kd [9] was 0.381 nM. The koff [9] was 0.000347 s⁻¹, the kon [9] was 909000 M⁻¹ s⁻¹ and the “Mean IC50 (whole blood phospho-STAT6)” value [10] was 2.68 nM. For the same binder, the “Mean IC50 (whole blood phospho-STAT6)” value [11] was 1.23 nM and the Kd [12] was 0.4 nM.

B3: 586H-ELQLE-147 (bispecific antibody, human IgG1, kappa)
heavy: not shown
light: DIVMTQSPLSLPVTPGEPASISCRSSQNIVHINGNTYLEWYLQKPGQSPRLLIYKISDRFSGVPDRFSGSGSGTDFTLKISRVEADDVGIYYCFQGSHVPWTFGQGTKLEIKRTVAAPSVFIFPPSDEQLKSGTASVVCLLNNFYPREAKVQWKVDNALQSGNSQESVTEQDSKDSTYSLSSTLTLSKADYEKHKVYACEVTHQGLSSPVTKSFNRGEC
B3 gave a Kd [13] of 0.027 nM, a Kd [12] of 0.51 nM and a koff [14] of 1.52e-05 s⁻¹. It also gave a kon [14] of 701000 M⁻¹ s⁻¹.

B4: 586H-ELQLE-25 (bispecific antibody, human IgG1, kappa)
heavy: not shown
light: DIVMTQSPLSLPVTPGEPASISCRSSQNIVHINGNTYLEWYLQKPGQSPRLLIYKISDRFSGVPDRFSGSGSGTDFTLKISRVEADDVGIYYCFQGSHVPWTFGQGTKLEIKRTVAAPSVFIFPPSDEQLKSGTASVVCLLNNFYPREAKVQWKVDNALQSGNSQESVTEQDSKDSTYSLSSTLTLSKADYEKHKVYACEVTHQGLSSPVTKSFNRGEC
In the case of B4, the Kd [13] is reported as 0.001 nM, the Kd [12] is reported as 0.42 nM and the koff [14] is reported as 1.63e-06 s⁻¹. For the same binder, the kon [14] was 1.26e+06 M⁻¹ s⁻¹.

B5: 586H-ELQLE-154 (bispecific antibody, human IgG1, kappa)
heavy: not shown
light: DIVMTQSPLSLPVTPGEPASISCRSSQNIVHINGNTYLEWYLQKPGQSPRLLIYKISDRFSGVPDRFSGSGSGTDFTLKISRVEADDVGIYYCFQGSHVPWTFGQGTKLEIKRTVAAPSVFIFPPSDEQLKSGTASVVCLLNNFYPREAKVQWKVDNALQSGNSQESVTEQDSKDSTYSLSSTLTLSKADYEKHKVYACEVTHQGLSSPVTKSFNRGEC
With B5 the Kd [13] was 0.003 nM, the Kd [12] was 0.44 nM and the koff [14] was 3.57e-06 s⁻¹. It also gave a kon [14] of 1.25e+06 M⁻¹ s⁻¹.

B6: 586H-TVAAPS-25 (bispecific antibody, human IgG1, kappa)
heavy: not shown
light: DIVMTQSPLSLPVTPGEPASISCRSSQNIVHINGNTYLEWYLQKPGQSPRLLIYKISDRFSGVPDRFSGSGSGTDFTLKISRVEADDVGIYYCFQGSHVPWTFGQGTKLEIKRTVAAPSVFIFPPSDEQLKSGTASVVCLLNNFYPREAKVQWKVDNALQSGNSQESVTEQDSKDSTYSLSSTLTLSKADYEKHKVYACEVTHQGLSSPVTKSFNRGEC
B6 was tested, and the Kd [6] was 0.38 nM, the Kd [15] was 1.1 nM and the Kd [12] was 0.5 nM. For the same binder, the Kd [14] was 0.95 nM, the koff [14] was 0.00012 s⁻¹ and the kon [14] was 127000 M⁻¹ s⁻¹.

B7: BPC1401 (bispecific antibody, human IgG1, kappa)
heavy: not shown
light: QIVLSQSPAILSASPGEKVTMTCRASSSVSYIHWFQQKPGSSPKPWIYATSNLASGVPVRFSGSGSGTSYSLTISRVEAEDAATYYCQQWTSNPPTFGGGTKLEIKRTVAAPSVFIFPPSDEQLKSGTASVVCLLNNFYPREAKVQWKVDNALQSGNSQESVTEQDSKDSTYSLSSTLTLSKADYEKHKVYACEVTHQGLSSPVTKSFNRGEC
In the case of B7, the Kd [16] is reported as 0.313 nM, the koff [16] is reported as 0.000182 s⁻¹ and the kon [16] is reported as 581000 M⁻¹ s⁻¹. B7: binds [17].

B8: BPC1402 (bispecific antibody, human IgG1, kappa)
heavy: not shown
light: QIVLSQSPAILSASPGEKVTMTCRASSSVSYIHWFQQKPGSSPKPWIYATSNLASGVPVRFSGSGSGTSYSLTISRVEAEDAATYYCQQWTSNPPTFGGGTKLEIKRTVAAPSVFIFPPSDEQLKSGTASVVCLLNNFYPREAKVQWKVDNALQSGNSQESVTEQDSKDSTYSLSSTLTLSKADYEKHKVYACEVTHQGLSSPVTKSFNRGEC
notes: also called RituxanH-GS-DOM474
For B8, the Kd [16] was 0.358 nM, the koff [16] was 0.000305 s⁻¹ and the kon [16] was 852000 M⁻¹ s⁻¹. B8: binds [17].

B9: BPC1404 (bispecific antibody, human IgG1, kappa)
heavy: not shown
light: QIVLSQSPAILSASPGEKVTMTCRASSSVSYIHWFQQKPGSSPKPWIYATSNLASGVPVRFSGSGSGTSYSLTISRVEAEDAATYYCQQWTSNPPTFGGGTKLEIKRTVAAPSVFIFPPSDEQLKSGTASVVCLLNNFYPREAKVQWKVDNALQSGNSQESVTEQDSKDSTYSLSSTLTLSKADYEKHKVYACEVTHQGLSSPVTKSFNRGECGSGVQLLESGGGLVQPGGSLRLSCAASGFTFAWYDMGWVRQAPGKGLEWVSSIDWHGEVTYYADSVKGRFTISRDNSKNTLYLQMNSLRAEDTAVYYCATAEDEPGYDYWGQGTLVTVSS
notes: also called RituxanL-GS-DOM474
With B9 the Kd [16] was 1.02 nM, the koff [16] was 0.000508 s⁻¹ and the kon [16] was 499000 M⁻¹ s⁻¹. B9: binds [17].

B10: 586H-TVAAPS-210 GS removed (bispecific antibody, human IgG1, kappa)
heavy: not shown
light: DIVMTQSPLSLPVTPGEPASISCRSSQNIVHINGNTYLEWYLQKPGQSPRLLIYKISDRFSGVPDRFSGSGSGTDFTLKISRVEADDVGIYYCFQGSHVPWTFGQGTKLEIKRTVAAPSVFIFPPSDEQLKSGTASVVCLLNNFYPREAKVQWKVDNALQSGNSQESVTEQDSKDSTYSLSSTLTLSKADYEKHKVYACEVTHQGLSSPVTKSFNRGEC
notes: also called BPC1602
In the case of B10, the binding result [18] is reported as “binds”, the Kd [19] is reported as 0.058 nM and the koff [19] is reported as 2.86e-05 s⁻¹. The kon [19] was 492000 M⁻¹ s⁻¹, the IC50 [8] was 19.2 nM and the Kd [20] was 0.562 nM. The Kd [21] was 0.501 nM.

B11: BPC1801 (bispecific antibody, human IgG1, kappa)
heavy: not shown
light: DIVMTQSPLSLPVTPGEPASISCRSSQSIVQSNGDTYLEWYLQKPGQSPQLLIYRVSNRFSGVPDRFSGSGSGTDFTLKISRVEAEDVGVYYCFQGSHVPYTFGQGTKLEIKRTVAAPSVFIFPPSDEQLKSGTASVVCLLNNFYPREAKVQWKVDNALQSGNSQESVTEQDSKDSTYSLSSTLTLSKADYEKHKVYACEVTHQGLSSPVTKSFNRGEC
notes: also called antiIGF1R Heavy Chain-GS-CT01 adnectin
B11: binds (VEGF R2 (VEGF receptor)).

B12: BPC1802 (bispecific antibody, human IgG1, kappa)
heavy: not shown
light: DIVMTQSPLSLPVTPGEPASISCRSSQSIVQSNGDTYLEWYLQKPGQSPQLLIYRVSNRFSGVPDRFSGSGSGTDFTLKISRVEAEDVGVYYCFQGSHVPYTFGQGTKLEIKRTVAAPSVFIFPPSDEQLKSGTASVVCLLNNFYPREAKVQWKVDNALQSGNSQESVTEQDSKDSTYSLSSTLTLSKADYEKHKVYACEVTHQGLSSPVTKSFNRGEC
B12: binds (VEGF R2 (VEGF receptor)).

From patent US20110008345A1 (GlaxoSmithKline, published 2011)
